Results on 14 compounds are retold here after patent US20050282743A1, “Molecular interactions in cells” (Arbor Vita Corporation, priority 2001, published 2005).

Ends that are not written are not given here. Peptide text beside a SMILES is read from it. * marks the point of attachment. Biotin = O=C1N[C@H]2[C@H](CS[C@H]2CCCCC(=O)*)N1

Common to all, as to assay: G' assay (10 uM PL peptide), results of TABLE 7 and TABLE 12
Common to all, as to format: binding

The target of assay [1] is T1, PDZ protein (GST-PDZ fusion) (Homo sapiens, UniProt Q9UDY2).
T1 construct: made in house; host or cells: E. coli (DH5alpha, BL21 or JM109)
T1 sequence (Q9UDY2 1-1190): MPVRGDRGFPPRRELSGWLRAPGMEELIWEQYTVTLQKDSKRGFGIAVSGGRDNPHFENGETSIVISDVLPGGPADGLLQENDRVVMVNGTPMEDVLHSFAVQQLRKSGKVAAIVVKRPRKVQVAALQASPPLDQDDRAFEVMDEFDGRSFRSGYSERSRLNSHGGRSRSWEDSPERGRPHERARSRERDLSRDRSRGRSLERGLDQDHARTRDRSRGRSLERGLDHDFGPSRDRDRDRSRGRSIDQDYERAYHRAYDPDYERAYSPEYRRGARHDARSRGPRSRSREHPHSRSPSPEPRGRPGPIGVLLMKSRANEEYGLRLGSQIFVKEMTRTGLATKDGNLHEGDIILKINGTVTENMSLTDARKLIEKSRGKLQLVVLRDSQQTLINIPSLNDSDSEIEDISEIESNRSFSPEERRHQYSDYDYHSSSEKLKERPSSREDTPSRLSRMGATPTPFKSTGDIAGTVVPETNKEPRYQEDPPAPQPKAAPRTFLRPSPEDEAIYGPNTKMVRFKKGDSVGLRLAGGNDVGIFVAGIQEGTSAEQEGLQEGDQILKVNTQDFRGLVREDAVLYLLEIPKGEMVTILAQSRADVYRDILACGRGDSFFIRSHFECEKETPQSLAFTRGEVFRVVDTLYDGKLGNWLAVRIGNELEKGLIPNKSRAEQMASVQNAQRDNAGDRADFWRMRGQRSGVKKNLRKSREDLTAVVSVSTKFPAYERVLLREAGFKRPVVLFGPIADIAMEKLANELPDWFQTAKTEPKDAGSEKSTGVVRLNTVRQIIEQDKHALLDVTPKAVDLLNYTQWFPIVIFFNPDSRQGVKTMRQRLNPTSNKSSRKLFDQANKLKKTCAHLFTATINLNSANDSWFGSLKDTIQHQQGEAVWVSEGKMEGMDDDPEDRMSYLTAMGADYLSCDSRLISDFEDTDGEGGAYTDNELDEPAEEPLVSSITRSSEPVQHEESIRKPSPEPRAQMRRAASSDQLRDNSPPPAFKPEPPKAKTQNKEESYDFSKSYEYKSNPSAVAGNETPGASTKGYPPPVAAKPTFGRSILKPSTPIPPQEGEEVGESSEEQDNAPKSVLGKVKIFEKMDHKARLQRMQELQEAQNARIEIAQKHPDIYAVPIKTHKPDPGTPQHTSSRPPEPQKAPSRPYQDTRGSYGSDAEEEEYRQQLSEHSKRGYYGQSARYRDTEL
In short, it runs like this:
(§1)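 Binding classes derive from A450 nm of bound biotin-tagged PL peptide. A score of 5 needs A450 above 4 in more than two repeats.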

In assay [2] the target is T2, PDZ protein (GST-PDZ fusion) (Homo sapiens, UniProt Q9C0E4).
T2 construct: made in house; host or cells: E. coli (DH5alpha, BL21 or JM109)
In short, it runs like this: as §1

Assay [3] has as its target T3, PDZ protein (GST-PDZ fusion) (Homo sapiens, UniProt Q9NY99).
T3 construct: made in house; host or cells: E. coli (DH5alpha, BL21 or JM109)
T3 sequence (Q9NY99 1-539): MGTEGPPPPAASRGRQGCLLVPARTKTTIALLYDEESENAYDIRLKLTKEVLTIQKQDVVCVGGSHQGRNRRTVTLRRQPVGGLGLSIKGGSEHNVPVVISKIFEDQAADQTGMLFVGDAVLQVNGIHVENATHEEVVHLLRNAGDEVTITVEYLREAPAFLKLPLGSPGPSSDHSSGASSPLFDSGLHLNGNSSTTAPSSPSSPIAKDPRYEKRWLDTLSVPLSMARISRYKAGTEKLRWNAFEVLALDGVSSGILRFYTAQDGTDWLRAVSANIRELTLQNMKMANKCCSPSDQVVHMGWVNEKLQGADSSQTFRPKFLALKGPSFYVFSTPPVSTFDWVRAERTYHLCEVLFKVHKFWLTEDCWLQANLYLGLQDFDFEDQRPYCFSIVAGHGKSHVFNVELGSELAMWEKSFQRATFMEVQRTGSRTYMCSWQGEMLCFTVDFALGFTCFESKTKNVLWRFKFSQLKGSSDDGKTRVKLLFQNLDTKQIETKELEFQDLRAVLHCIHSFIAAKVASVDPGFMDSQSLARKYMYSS
Conditions: PDZ Syntrophin gamma-2, PDZ Domain 1. The method in brief:
as §1

T2 sequence (Q9C0E4 whole entry, the tested form may be a part): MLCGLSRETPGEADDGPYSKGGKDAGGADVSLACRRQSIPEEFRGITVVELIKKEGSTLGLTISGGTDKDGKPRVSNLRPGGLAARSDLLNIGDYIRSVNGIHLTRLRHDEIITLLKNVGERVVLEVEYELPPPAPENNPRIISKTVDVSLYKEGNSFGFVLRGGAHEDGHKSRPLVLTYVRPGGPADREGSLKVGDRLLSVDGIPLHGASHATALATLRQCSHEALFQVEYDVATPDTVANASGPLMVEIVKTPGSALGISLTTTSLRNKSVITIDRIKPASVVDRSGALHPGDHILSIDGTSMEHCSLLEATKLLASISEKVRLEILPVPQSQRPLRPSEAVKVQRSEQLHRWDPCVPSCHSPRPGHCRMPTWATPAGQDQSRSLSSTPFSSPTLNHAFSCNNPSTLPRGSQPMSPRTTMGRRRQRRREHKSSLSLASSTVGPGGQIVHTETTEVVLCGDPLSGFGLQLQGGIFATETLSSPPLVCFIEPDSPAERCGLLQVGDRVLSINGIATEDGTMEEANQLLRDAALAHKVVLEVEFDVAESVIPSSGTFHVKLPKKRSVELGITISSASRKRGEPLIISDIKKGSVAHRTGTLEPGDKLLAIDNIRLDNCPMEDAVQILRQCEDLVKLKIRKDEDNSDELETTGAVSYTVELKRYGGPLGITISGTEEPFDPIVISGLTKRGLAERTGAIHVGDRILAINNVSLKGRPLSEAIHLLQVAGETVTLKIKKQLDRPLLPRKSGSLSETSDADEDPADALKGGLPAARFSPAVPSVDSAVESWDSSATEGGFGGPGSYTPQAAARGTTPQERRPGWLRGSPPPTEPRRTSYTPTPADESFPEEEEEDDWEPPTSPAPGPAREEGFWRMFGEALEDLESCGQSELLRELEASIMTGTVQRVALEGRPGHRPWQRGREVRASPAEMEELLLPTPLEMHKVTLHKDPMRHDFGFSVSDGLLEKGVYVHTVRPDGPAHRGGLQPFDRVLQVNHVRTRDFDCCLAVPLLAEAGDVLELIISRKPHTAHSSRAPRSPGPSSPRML

As for `CC(C)C[C@H](NC(=O)[C@H](CCCNC(=N)N)NC(=O)CNC(=O)CNC(=O)[C@H](CCCNC(=N)N)NC(=O)[C@H](C)NC(=O)[C@@H]1CCCN1C(=O)[C@H](CCCNC(=N)N)NC(=O)CNC(=O)CNC(=O)[C@@H](NC(=O)[C@H](C)NC(=O)CCCC[C@@H]1SC[C@@H]2NC(=O)N[C@@H]21)C(C)C)C(=O)N[C@@H](CCC(N)=O)C(=O)NCC(=O)N[C@@H](CCCNC(=N)N)C(=O)N[C@@H](CCCNC(=N)N)C(=O)N[C@@H](CCC(N)=O)C(=O)N[C@H](C(=O)N[C@@H](CCC(N)=O)C(=O)N[C@H](C(=O)O)C(C)C)[C@@H](C)O` [HPV E6 58 (modified)] (Biotin-AVGGRPARGGRLQGRRQTQV-OH; C-terminus assumed), the Classification in assay [1] (PDZ ZO-2, PDZ Domain 1) was 3 (A450 nm 2-3). With “A2AC_HUMAN (Modified) (Biotin-DFRPSFKHILFRRARRGFRQ; not fully specified)”, the Classification in assay [2] (PDZ KIAA1719, PDZ Domain 3) is 5 (A450 nm of 4 more than 2× repeated). With `CC(C)C[C@H](NC(=O)[C@H](CC(=O)O)NC(=O)[C@H](CO)NC(=O)[C@H](CCC(=O)O)NC(=O)CNC(=O)[C@H](Cc1ccc(O)cc1)NC(=O)[C@H](CC(C)C)NC(=O)[C@H](C)NC(=O)[C@H](CO)NC(=O)[C@H](CO)NC(=O)[C@H](Cc1ccccc1)NC(=O)[C@H](C)NC(=O)[C@H](C)NC(=O)[C@H](Cc1ccc(O)cc1)NC(=O)[C@H](CC(=O)O)NC(=O)[C@H](CC(C)C)NC(=O)[C@H](C)NC(=O)CNC(=O)[C@@H]1CCCN1C(=O)[C@@H](NC(=O)CCCC[C@@H]1SC[C@@H]2NC(=O)N[C@@H]21)C(C)C)C(=O)O` [a-actinin 2] (Biotin-VPGALDYAAFSSALYGESDL-OH; C-terminus assumed), in assay [3], the Classification was 1 (A450 nm 0-1). For the compound “ALVLIAFCIIRRRPSAYQAL (Biotin-ALVLIAFCIIRRRPSAYQAL) [CD68]”, the Classification in assay [2] (PDZ KIAA1719, PDZ Domain 3) was 1 (A450 nm 0-1); in assay [2] (PDZ KIAA1719, PDZ Domain 6), 1 (A450 nm 0-1). For `CC[C@H](C)[C@H](NC(=O)[C@H](CC(=O)O)NC(=O)[C@H](CCC(=O)O)NC(=O)[C@H](CCCNC(=N)N)NC(=O)[C@@H](NC(=O)CCCC[C@@H]1SC[C@@H]2NC(=O)N[C@@H]21)[C@@H](C)O)C(=O)N[C@@H](Cc1ccc(O)cc1)C(=O)N[C@H](C(=O)N[C@@H](CC(N)=O)C(=O)N[C@@H](Cc1ccc(O)cc1)C(=O)N1CCC[C@H]1C(=O)N[C@H](C(=O)N[C@@H](Cc1ccccc1)C(=O)N[C@@H](CO)C(=O)N[C@@H](CCCNC(=N)N)C(=O)N[C@@H](CCCNC(=N)N)C(=O)N1CCC[C@H]1C(=O)N[C@@H](CCCCN)C(=O)N[C@H](C(=O)N[C@@H](CCCNC(=N)N)C(=O)N[C@H](C(=O)O)C(C)C)[C@@H](C)O)[C@@H](C)O)C(C)C` [DNAM-1] (Biotin-TREDIYVNYPTFSRRPKTRV-OH; C-terminus assumed), the Classification in assay [1] (PDZ ZO-2, PDZ Domain 1) was 3 (A450 nm 2-3). “A2AA_HUMAN (modified) (Biotin-HDFRRAFKKILARGDRKRIV; not fully specified)”: the Classification in assay [1] (PDZ ZO-2, PDZ Domain 2) is listed as 2 (A450 nm 1-2); in assay [2] (PDZ KIAA1719, PDZ Domain 4) it was 3 (A450 nm 2-3).

Take `CC(C)C[C@H](NC(=O)[C@H](C)NC(=O)[C@H](CO)NC(=O)CNC(=O)[C@@H](NC(=O)CCCC[C@@H]1SC[C@@H]2NC(=O)N[C@@H]21)[C@@H](C)O)C(=O)N[C@@H](CCC(N)=O)C(=O)N[C@@H](C)C(=O)N[C@@H](Cc1c[nH]c2ccccc12)C(=O)N[C@@H](CCCNC(=N)N)C(=O)N[C@@H](Cc1c[nH]cn1)C(=O)N[C@H](C(=O)N[C@@H](CO)C(=O)N[C@@H](CCCNC(=N)N)C(=O)N[C@@H](CCC(N)=O)C(=O)N[C@@H](C)C(=O)N[C@H](C(=O)N[C@@H](CCC(=O)O)C(=O)N[C@@H](CO)C(=O)N[C@H](C(=O)N[C@H](C(=O)O)C(C)C)[C@@H](C)O)[C@@H](C)O)[C@@H](C)O` [HPV E6 #66 (modified)] (Biotin-TGSALQAWRHTSRQATESTV-OH; C-terminus assumed): in assay [3], the Classification was 1 (A450 nm 0-1). For “GPVPGEPAKPKTSAHHATFV (Biotin-GPVPGEPAKPKTSAHHATFV)”, the Classification in assay [1] (PDZ ZO-2, PDZ Domain 1) is 1 (A450 nm 0-1). On to “LNETTETQRTLLNGDLQTSI (Biotin-LNETTETQRTLLNGDLQTSI) [SSTR2 (somatostatin recepor 2)]”, for which the Classification in assay [2] (PDZ KIAA1719, PDZ Domain 6) is on record as 1 (A450 nm 0-1). In the case of `CC[C@H](C)[C@H](NC(=O)[C@H](CCCCN)NC(=O)[C@@H](NC(=O)[C@H](CO)NC(=O)[C@@H]1CCCN1C(=O)[C@H](Cc1ccccc1)NC(=O)[C@@H](NC(=O)[C@@H](NC(=O)[C@H](CCCNC(=N)N)NC(=O)[C@H](CCC(=O)O)NC(=O)[C@H](CC(C)C)NC(=O)[C@H](CC(C)C)NC(=O)[C@H](CC(C)C)NC(=O)[C@@H](NC(=O)CNC(=O)[C@@H](NC(=O)CCCC[C@@H]1SC[C@@H]2NC(=O)N[C@@H]21)C(C)C)[C@@H](C)O)C(C)C)[C@@H](C)CC)C(C)C)C(=O)N[C@@H](C)C(=O)N[C@H](C(=O)N[C@@H](CC(C)C)C(=O)N[C@H](C(=O)O)C(C)C)[C@@H](C)O` [Adenovirus E4 Type9], the Classification in assay [1] (PDZ ZO-2, PDZ Domain 1, PL peptide 10 uM) is reported as 3 (A450 nm 2-3). Regarding `CC[C@H](C)[C@H](NC(=O)[C@H](CO)NC(=O)[C@@H](NC(=O)[C@H](Cc1ccccc1)NC(=O)[C@H](CO)NC(=O)CCCC[C@@H]1SC[C@@H]2NC(=O)N[C@@H]21)[C@@H](C)O)C(=O)N[C@@H](CC(C)C)C(=O)N[C@H](C(=O)N[C@@H](CS)C(=O)N[C@@H](Cc1c[nH]cn1)C(=O)N[C@@H](CCC(N)=O)C(=O)N[C@@H](CCCNC(=N)N)C(=O)N[C@@H](CCCNC(=N)N)C(=O)N[C@H](C(=O)N[C@@H](CCC(N)=O)C(=O)N[C@@H](CCCNC(=N)N)C(=O)N[C@@H](CCCCN)C(=O)N[C@@H](CCC(=O)O)C(=O)N[C@H](C(=O)N[C@H](C(=O)N[C@@H](C)C(=O)O)C(C)C)[C@@H](C)O)[C@@H](C)O)[C@@H](C)O` [GluR5-2 (rat)], in assay [2] (PDZ KIAA1719, PDZ Domain 3), the Classification is on record as 1 (A450 nm 0-1). In the case of CKR5_HUMAN (ERASSVYTRSTGEQEISVGL), the Classification in assay [2] (PDZ KIAA1719, PDZ Domain 2) is 1 (A450 nm 0-1); in assay [2] (PDZ KIAA1719, PDZ Domain 5), 1 (A450 nm 0-1). Take “ELLQFCRTPNPALKNGQYWV (Biotin-ELLQFCRTPNPALKNGQYWV)”: the Classification in assay [1] (PDZ ZO-2, PDZ Domain 1) was 5 (A450 nm of 4 more than 2× repeated); in assay [1] (PDZ ZO-2, PDZ Domain 2) it was 1 (A450 nm 0-1); in assay [2] (PDZ KIAA1719, PDZ Domain 6) it was 5 (A450 nm of 4 more than 2× repeated).

For the compound `CC[C@H](C)[C@H](NC(=O)[C@H](C)NC(=O)[C@H](CC(C)C)NC(=O)[C@H](Cc1c[nH]c2ccccc12)NC(=O)[C@H](Cc1c[nH]cn1)NC(=O)[C@H](CCC(N)=O)NC(=O)[C@H](CC(C)C)NC(=O)[C@H](CCC(N)=O)NC(=O)[C@H](Cc1ccccc1)NC(=O)[C@H](CCC(N)=O)NC(=O)[C@H](CCCNC(=N)N)NC(=O)[C@@H](NC(=O)[C@H](CC(=O)O)NC(=O)[C@H](CCCNC(=N)N)NC(=O)[C@H](CCC(N)=O)NC(=O)[C@H](C)NC(=O)[C@@H](NC(=O)[C@H](CC(C)C)NC(=O)[C@H](Cc1c[nH]cn1)NC(=O)[C@H](Cc1c[nH]cn1)NC(=O)CCCC[C@@H]1SC[C@@H]2NC(=O)N[C@@H]21)C(C)C)[C@@H](C)CC)C(=O)O` [noradrenaline transporter] (Biotin-HHLVAQRDIRQFQLQHWLAI-OH; C-terminus assumed), the Classification in assay [2] (PDZ KIAA1719, PDZ Domain 5) is on record as 2 (A450 nm 1-2); in assay [2] (PDZ KIAA1719, PDZ Domain 6), 2 (A450 nm 1-2).
